# In paper PMC12210187:
# Biological target: Stenotrophomonas maltophilia EntB (Stenotrophomonas maltophilia K279a)
# Assay: SEC; analytical size-exclusion chromatography; estimated molecular weight 61.8 kDa
substance,measurement,value
Stenotrophomonas maltophilia EntB (enzyme),stoichiometry N,2
